From the DeepSol protein solubility set

Assay: soluble on expression in E. coli; label from the status in PepcDB or PDB records

## MGSDKIHHHHHHMGSLADTLRDRRQKLARLIDFPAILWSGGSNARNFPANRFPFRASSHFLYFAGLPLPNAAIHLEAGKLTLFIDDPAPGSALWHGETPKREEIAETIGADAAKPLSELTPFLAGAATIAVQDATTWTQQSQLLNRWVLPQSQPEGIDLELTKAIVTLRLIHDAGALAELRKAATVSVAAHKAGMVATANAKIEAEVRAAMESVFIAHNMTTAYNSIVTVHGEVLHNEQYHHPLQPGDLLLADVGGETELGWAADITRTWPVSGKFSPTQRDIYDVVLAAHDTCIANILPGVEYAEIHLVGARVIAEGLVNLGILRGNPEDLVEKDAHALFFPHGIGHLLGLDVHDMEDLGDLAGYEEGKKRSDRFGLGYLRLNRPLRTGMLVTIEPGFYQVPAILNDEKIRSRYQYTVNWERLSQFADVRGIRIEDDVLVTDTGSEVLTAALPNDADTVEHLVNKI
  soluble on expression in E. coli: not soluble

## MKLLSTYRLQPMKFSEIRNRLDYFVELGVTHLYLSPVLKARPGSTHGYDVVDYNTINDELGGEEEYIRLIDEAKSKGLGIIQDIVPNHMAVHHTNWRLMDVLKKGRHSRYYNYFDFYEEEEKIRIPILGDRNFKITYVNDEPYLDYYGNLFPINDEGRNYLNDIEKLLKVQYYELVDWRDYPSYRRFFAVNELIAVRQELEWVFEDSHSKILSFEVDGYRIDHIDGLFKPEEYLRRLKNKIGNKHIFVEKILSIGEKLRWDFIDGTTGYDFLNYSNLLFTDNEDKMTEIYKNILDIDLDELVKETKKKIIDTLFKHDIERISMMLGVNYEEIKEFLSCLKVYRTYITENDFRDEEIIRNCSQKVYESMKKNVTAFMKLQQYMPAVFAKAYEDTVLFIYNRLISLNEVGSDLHYYSISCDKFHEFNLKRVGTLSFNATSTHDTKFSEDVRMRISAISEIPDEWAKKVNEWHNILNPNIDKNDEYRLYQTIVGSFDGFNNEYKERLKAHMIKALREAKVHTDWVNVNTEYEKKMTYLIDKMFNNEKFMESFLEFESKIDKMGKVKSLSLVALKITSPGVADFYQGLENFRYLLTDPDNRRPVVFSELPKRYEEGLFNNGRIKAYVTKVLLNLRKSMKDFFINSEYKPLKLQKGLCGFMRGDKVLVIVKTLNRDYDIEIDGEYTDVITDETVRGRVKVDKLPLILVK
  soluble on expression in E. coli: soluble

## VKFLTVNDDILSMPQARNFCASAGGYLADDLGDDKNNFYSSIAANTQFWIGLFKNSDGQFYWDRGQGINPDLLNQPITYWANGEPSNDPTRQCVYFDGRSGDKSKVWTTDTCATPRPFICQKHRYDSDHKPNTIGDA
  soluble on expression in E. coli: soluble

## MGSDKIHHHHHHQNTPIGENIELAGENPEELKVIYINKDVSTHFIAMEDIKYVDISVNDIVGDIPTGNSLRIKPTKEGASGVITIVTERFFVQYMLVYSSDLAKAYTRFNIPYADLRSYMNPEVNLTKAQMYDYAHRMFISKNKFYDVSSTSNLMKIVLNNIYTLDKYFFIDISMINKTKIRYDIDQIRFKIEDKKQTKATNFQSIEILPLMQVNKNLVFKKNYRNIFVFEKFTFPDEKVLTIEISEKQISGRTITLRIDYADILHADAFTE
  soluble on expression in E. coli: not soluble

## MSLVDTEIWLRLMSISSLYGDDMVRIAHWLARQSHIDAVVLQQTGLTLRQAQRFLSFPRKSIESSLCWLEQPNHHLIPADSEFYPPQLLATTDYPGALFVEGELHALHSFQLAVVGSRAHSWYGERWGRLFCETLAKHGVTITSGLARGIDGVAHKAALQVNGVSIAVLGNGLNTIHPRRHARLAASLLEQGGALVSEFPLDVPPLAYNFPRRNRIISGLSKGVLVVEAALRSGSLVTARCALEQGREVFALPGPIGNPGSEGPHWLIKQGAILVTEPEEILENLQFGLHWLPDAPENSFYSPDQEDVALPFPELLANVGDEVTPVDVVAERAGQPVPEVVTQLLELELAGWIAAVPGGYVRLRRACHVRRTNVFVEGHHHHHH
  soluble on expression in E. coli: soluble

## NGFDVREGRKLLVGGGSGIVSLYPIADQETDALISAKTRDELIFKDRFPESRRFIATDDGSDGFHGFAHELLQRINIDSYEAIYVCGPEQMMYKVLQVLKGRKVFVQFS
  soluble on expression in E. coli: not soluble

## STSTFNPRECKLSKQEGQNYGFFLRIEKDTEGHLVRVVEKCSPAEKAGLQDGDRVLRINGVFVDKEEHMQVVDLVRKSGNSVTLLVLDGDSYEKAVKTRVDLKELGQSQKEQGLSDNILSPVMNGGVQTWTQPRLCYLVKEGGSYGFSLKTVQGKKGVYMTDITPQGVAMRAGVLADDHLIEVNGENVEDASHEEVVEKVKKSGSRVMFLLVDKETDKRHVEQKIQFKRETASLKLLPHQPRIVEMKKGSNGYGFYLRAGSEQKGQIIKDIDSGSPAEEAGLKNNDLVVAVNGESVETLDHDSVVEMIRKGGDQTSLLVVDKETDNMYRLAHFSPFLYYQSQELPNGSVKEAPAPTPTSLEVSSPPDTTEEVDHKPKLCRLAKGENGYGFHLNAIRGLPGSFIKEVQKGGPADLAGLEDEDVIIEVNGVNVLDEPYEKVVDRIQSSGKNVTLLVCGKKAYDYFQAKKIPIVSSLADPLDTPPDSKEGIVVESNHDSHMAKERAHSTASHSSSNSEDTEM
  soluble on expression in E. coli: soluble

## MVVYGADVICASCVNAPTSKDIYDWLQPLLKRKYPNISFKYTYIDITKDNDNLTDHDLQFIERIEQDELFYPLITMNDEYVADGYIQTKQITRFIDQKLVNE
  soluble on expression in E. coli: soluble

## SAAAADERSPEDGEDEEEEEQLVLVELSGIIDSDFLSKCENKCKVLGIDTERPILQVDSCVFAGEYEDTLGTCVIFEENVEHADTEGNNKTVLKYKCHTMKKLSMTRTLLTEKKEGEENIGGVEWLQIKDNDFSYRPNMICNFLHENEDEEVVASAPDKSLELEEEEIQMNDSSNLSCEQEKPMHLEIEDSGPLIDIPSETEGSVFMETQMLP
  soluble on expression in E. coli: not soluble

## MGHHHHHHSHMNGFSTEEDSREGPPAAPAAAAPGYGQSCCLIEDGERCVRPAGNASFSKRVQKSISQKKLKLDIDKSVRHLYICDFHKNFIQSVRNKRKRKTSDDGGDSPEHDTDIPEVDLFQLQVNTLRRYKRHYKLQTRPGFNKAQLAETVSRHFRNIPVNEKETLAYFIYMVKSNKSRLDQKSEGGKQLE
  soluble on expression in E. coli: soluble

## MPVSNEIWQLLSRLAEDIRPIGVNISAGEPNRLWTEAKWRALLERFPGERFVVLSGPDDLDAKRRLEEQCPNAVASPPTRNLYEASCIVAKLRLLVTPDTSMVHVASATGTPVAGLYREAPQDISRFGPYAIPYEIVISPTGEVSGIKPESVADAVRRLMARAIGREALEHHHHHH
  soluble on expression in E. coli: not soluble

## MAHHHHHHMTLTSRTAQAAHAQNDVAAQRPPPPLYPSMNVGASAVHPHQNRPCHAYDSQPAWQNPQLGTAPPAVIAGAPLAPEQQQQQTHQQGRSNQPQSIFGGRFTLLDRLGSGGFGEVYRAEECDQLVPLAVKVERVTDTNALPEQSFLFHEAKVMQEIHKSIQAYMAAQQQHQLLRLQQEKAQSGNGRRANNEAAAAADEVRQEKVGIAKLKYYGQDGMSRVLIMSLHGQSVANVHRHQGRLSLFATVMIADQVLRSLEHVHRAGYVHADLKPDNILLGREDPEQLYLVDFGLSVHFRDRKGKHRPLVTNHSFVGTPRYASLRTHMGHTLSRRDDIEQLVYVMIYLFRGRLPWSGLRISDPDAKEKRIAQMKAEMTLDSICAGCPEAFRDVLNYARCMEFEEEPQYQFLHVLLCSLRDSCTELSSDPSCVPANGSGGVMPQMLTLNVNCSTRQHPKDQNGGDAAANGGAVGVTAAEAGLVQNTNIVSGVVEQIDGVAENPMMMSSRGTGAPAFFSDAIGQGFLSGNGTDAGPLSPRIDCLNGQPFSPPPLDLQRPCGSPQLRQMR
  soluble on expression in E. coli: not soluble

## GSARQQEIDMKRQQRFFRIPFIRPADQYKDPQNKKKGWWYAHFDGPWIARQMELHPDKPPILLVAGKDDMEMCELNLEETGLTRKRGAEILPRQFEEIWERCGGIQYLQSAIESRQARPTYATAMLQNLLKGSSGGSLVPR
  soluble on expression in E. coli: soluble

## KIGYGKANPTTRLWVGGLGPNTSLAALAREFDRFGSIRTIDHVKGDSFAYIQYESLDAAQAACAKMRGFPLGGPDRRLRVDFAK
  soluble on expression in E. coli: soluble

## MGSDKIHHHHHHMSNFLLEAGRQTLMLELQEASRLPERLGDDFIRAAETIIHCEGKLIVSGIGKSGHIGKKLAATFASTGTPAFFVHPAEALHGDLGMLDSRDVMLFISYSGSAKELDLIVPRLEEKGIPLLAMTGKSTSPLALAAKAVLDIAVEREACPMHLAPTSSTVNTLMLGDALAMAVMQARGFNEEDFARSHPAGALGARLLNKVHHLMRRDEEVPRVNTEANVMDAMLELSRTGLGLVAVCDEANRVQGVFTDGDLRRWLVAGGTLNDGVTRAMTRNGVTLQADSRAVEAKERLMKHKISAAPVVDENGQLVGAINLQNFYQAGIL
  soluble on expression in E. coli: not soluble

## MSLGRGLYFNQAQKHFQQLLLMEERATIARELHDSLAQVLSYLRIQLTLLKRSIPEDNATAQSIMADFSQALNDAYRQLRELLTTFRLTLQQADLPSALREMLDTLQNQTSAKLTLDCRLPTLALDAQMQVHLLQIIREAVLNAMKHANASEIAVSCVTAPDGNHTVYIRDNGIGIGEPKEPEGHYGLNIMRERAERLGGTLTFSQPSGGGTLVSISFRSAEGEESQLMEGHHHHHH
  soluble on expression in E. coli: soluble

## MAHHHHHHMRNLSDQFPVEDSPMNARRQMANGDDHSQRDSPMNHDVAHTYEGNTLDGHLTKAESASMTKTPTAAANGACANSAPSEYVVAKERLEAARAAHKQRLREIKDDKSLKIKSMPSLEELRDERVRLSEQVLHHKDEQDSLALDIEGLEGAAEVYQLAARVQRLEHFANRAYEYAEETLPRDIERTLEEDRQLSNRELCAYIQELQSKRANTLKKVVASQEGMVKRNLRKGATATTAALGEDADPMEAKAVAHTQENKDECVVLHQKIRRFCAMRTKLQSDILKEKSASKKMEERMCAAIRTAELANARDARMCGELNNRNAAATTNSQLLIDQLNVGHYGLGNAPSTKQLLEDRKAREALLETTETDQQQYGRFVSSGSLGSRQSYANSQSSHQRAIKPPLVASKPTAAQRARDDASRSSREEFAQMLRRNSDGNSYQASRSQSLSKPPLVASKPTASQQSRETALRGEREEVSVSRTVARSNSLFSDVRPPSLAAKSTASQRSRDRQ
  soluble on expression in E. coli: not soluble

## ENEIERPEDMRVRTLANKSKMKVSIVQQIDRKVALDDIAVSHGLDFPELLSEVETIVYSGTRINIDYFINEVMDEDHLEDIFEYFKESTTDSLEEAMQELGKDYSEEEIRLVRIKFLSEMAN
  soluble on expression in E. coli: soluble

## MKGNFVVSKEDWSLHRKGYDDQKRHQEKVKEAIKNNLPDLITEESIIMSNGRDVIKIPIRSLDEYKIRYNYEKNKHVGQGNGDSQVGDVVARDGSGEGQGPGKGQGAGDLPGQDYYEAEVSLMEIEEAFFSQLELPNLQRKELDQNVTQHIEFNDIRRTGLMGNIDKKRTMLAAFKRNAMNGKPGFYPIYREDLKFKTWNEVVKPESKAVVLAMMDTSGSMGMWEKYMARSFFFWMTRFLRTKYETVEIAFIAHHTEAKVVTEEEFFTKGESGGTICSSAYRKALELIETKYSPSRYNIYPFHFSDGDNLTSDNARCVKLVQELMKVSNMFGYGEVNQYNRHSTLMSAYRNIKDEKFRYYILKQKSDVFHAMRTFFRKEESKQLV
  soluble on expression in E. coli: not soluble

## MKTIGILGGMGPLATAELFRRIVIKTPAKRDQEHPKVIIFNNPQIPDRTAYILGKGEDPRPQLIWTAKRLEECGADFIIMPCNTAHAFVEDIRKAIKIPIISMIEETAKKVKELGFKKAGLLATTGTIVSGVYEKEFSKYGVEIMTPTEDEQKDVMRGIYEGVKAGNLKLGRELLLKTAKILEERGAECIIAGCTEVSVVLKQDDLKVPLIDPMDVIAEVAVKVALEK
  soluble on expression in E. coli: soluble

## MGSDKIHHHHHHMDKIIGLGNALIDVLATLKDDTLLDELELPKGSMQLIDDAKLQQINTKFSQMKTHLATGGSAGNAILGLACLGAGTGFIGKVGNDHYGDFFRKNLQKNNIEDNLLTSEQLPSGVASTFISQDGERTFGTYLGAAASLKAEDLTLEMFKGYAYLFIEGYLVQDHEMILHAIELAKEAGLQICLDMASYNIVENDLEFFSLLINKYVDIVFANEEEAKAFTGEEPEEALRVIAKKCSIAIVKVGANGSYIRKGTEEIKVSAIPVEKVLDTTGAGDYFAAGFLYGLTCGYSLEKCAKIGSILSGNVIQVIGTTISPERWDEIKLNINKVLAE
  soluble on expression in E. coli: not soluble
